Source: article PMC11477109, “NgAP2a Targets KCS Gene to Promote Lipid Accumulation in Nannochloropsis gaditana”
Positions count from the first letter of the chain named.

T1: PET28-NgAP2a (Nannochloropsis gaditana, UniProt W7TGT1 140-326)
T1 sequence: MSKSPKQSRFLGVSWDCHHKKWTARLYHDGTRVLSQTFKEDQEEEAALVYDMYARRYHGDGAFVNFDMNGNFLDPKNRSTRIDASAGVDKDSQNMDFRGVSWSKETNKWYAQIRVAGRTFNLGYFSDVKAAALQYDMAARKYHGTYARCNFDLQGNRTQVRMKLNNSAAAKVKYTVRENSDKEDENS

B1: M3 probe (EMSA3) (dsDNA)
DNA 1: GGCGTTGCCACTTGGGCAAAGAAAAGCTGG
DNA 2: CCAGCTTTTCTTTGCCCAAGTGGCAACGCC
B2: M5 probe (EMSA5) (dsDNA)
DNA 1: CTCATTCCCATACCGCAAGTACCTGACCCTGTA
DNA 2: TACAGGGTCAGGTACTTGCGGTATGGGAATGAG
B3: mutant M5 competitor (mu_EMSA5) (dsDNA)
DNA 1: B2 DNA 1 with C13A, C14A, G15A
DNA 2: B2 DNA 2 with C19T, G20T, G21T
B4: unlabeled M5 competitor (dsDNA)
DNA 1: B2 DNA 1
DNA 2: B2 DNA 2

Key:
PET28-NgAP2a [1] = biological target: T1, PET28-NgAP2a; assay: EMSA; Beyotime Chemiluminescent EMSA Kit GS009 per manual; buffer, salt, pH and temperature not stated; details: protein: recombinant; label: 3' biotin; blunt
PET28-NgAP2a [2] = biological target: T1, PET28-NgAP2a; assay: competition; 100x unlabeled vs biotin M5 probe; Beyotime Chemiluminescent EMSA Kit GS009 per manual; buffer, salt, pH and temperature not stated; details: protein: recombinant; label: none (unlabeled); blunt

Row | Binder | binding result (PET28-NgAP2a [1]) | binding result (PET28-NgAP2a [2])
1 | B1 | no binding | –
2 | B2 | binds | –
3 | B3 | – | no binding
4 | B4 | – | binds
